Reference: patent publication CN105483091A

Columns and labels:
[1] = target: T1, 原核表达的重组人Calcitonin蛋白 (PET28a-Calcitonin, 大肠杆菌BL21表达, Ni-NTA纯化) (human) (UniProt P01258); assay: ELISA titer, as told in the summary of results
T1 sequence (looked up): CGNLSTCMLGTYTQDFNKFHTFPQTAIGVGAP

[2] = target: T1, 原核表达的重组人Calcitonin蛋白 (PET28a-Calcitonin, 大肠杆菌BL21表达, Ni-NTA纯化) (human); assay: direct ELISA, purified antibody diluted 1:200 to 1:12800 on plates coated with purified Calcitonin protein (10 μg/ml), goat anti-mouse IgG-HRP, OD450

ELISA滴度 (dilution (1:x)) [1]: > 100000
ELISA滴度 (dilution (1:x)) [2]: > 10000
B1: 小鼠抗人Calcitonin单克隆抗体 (杂交瘤细胞株7D5, CGMCC No.6919 产生) (antibody, part only; not given: light chain variable region, V domains shown, part only)
VH: LFCQTAGVHSEVQLQQSGPELVKPGTSVKMSCKASGYTFTSYVIHWVKQKPGQGLEWIGYINPYNVGTKYNEKFRDKATLTSDKSSNTAYMELSSLTSEDFAVYYCVRS
